Test results published in publication PMC6361588, “Exploration of CTCF post-translation modifications uncovers Serine-224 phosphorylation by PLK1 at pericentric regions during the G2/M transition”.

T1: FLAG-CTCF(S224E)-6xHis (UniProt Q61164 1-736, S224E)
T1 sequence: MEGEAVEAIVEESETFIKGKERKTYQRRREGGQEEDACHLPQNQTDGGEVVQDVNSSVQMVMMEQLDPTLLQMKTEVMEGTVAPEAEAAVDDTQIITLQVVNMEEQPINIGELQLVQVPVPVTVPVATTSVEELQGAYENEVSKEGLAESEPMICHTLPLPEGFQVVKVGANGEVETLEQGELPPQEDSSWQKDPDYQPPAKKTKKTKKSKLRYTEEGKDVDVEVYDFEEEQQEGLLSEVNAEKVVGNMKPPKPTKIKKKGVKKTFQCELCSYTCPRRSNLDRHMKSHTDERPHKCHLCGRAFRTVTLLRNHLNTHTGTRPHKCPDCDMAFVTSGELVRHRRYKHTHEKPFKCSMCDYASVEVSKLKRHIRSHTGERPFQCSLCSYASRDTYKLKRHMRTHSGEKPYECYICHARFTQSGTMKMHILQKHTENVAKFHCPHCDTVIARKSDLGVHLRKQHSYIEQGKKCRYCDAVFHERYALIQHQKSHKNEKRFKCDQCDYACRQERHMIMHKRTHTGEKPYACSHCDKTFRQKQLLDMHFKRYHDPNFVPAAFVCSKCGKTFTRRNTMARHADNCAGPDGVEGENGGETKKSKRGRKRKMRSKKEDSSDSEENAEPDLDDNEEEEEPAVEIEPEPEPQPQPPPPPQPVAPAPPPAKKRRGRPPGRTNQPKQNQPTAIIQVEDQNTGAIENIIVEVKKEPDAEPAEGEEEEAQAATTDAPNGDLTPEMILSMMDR

T2: FLAG-CTCF(S224A)-6xHis (UniProt Q61164 1-736, S224A)
T2 sequence: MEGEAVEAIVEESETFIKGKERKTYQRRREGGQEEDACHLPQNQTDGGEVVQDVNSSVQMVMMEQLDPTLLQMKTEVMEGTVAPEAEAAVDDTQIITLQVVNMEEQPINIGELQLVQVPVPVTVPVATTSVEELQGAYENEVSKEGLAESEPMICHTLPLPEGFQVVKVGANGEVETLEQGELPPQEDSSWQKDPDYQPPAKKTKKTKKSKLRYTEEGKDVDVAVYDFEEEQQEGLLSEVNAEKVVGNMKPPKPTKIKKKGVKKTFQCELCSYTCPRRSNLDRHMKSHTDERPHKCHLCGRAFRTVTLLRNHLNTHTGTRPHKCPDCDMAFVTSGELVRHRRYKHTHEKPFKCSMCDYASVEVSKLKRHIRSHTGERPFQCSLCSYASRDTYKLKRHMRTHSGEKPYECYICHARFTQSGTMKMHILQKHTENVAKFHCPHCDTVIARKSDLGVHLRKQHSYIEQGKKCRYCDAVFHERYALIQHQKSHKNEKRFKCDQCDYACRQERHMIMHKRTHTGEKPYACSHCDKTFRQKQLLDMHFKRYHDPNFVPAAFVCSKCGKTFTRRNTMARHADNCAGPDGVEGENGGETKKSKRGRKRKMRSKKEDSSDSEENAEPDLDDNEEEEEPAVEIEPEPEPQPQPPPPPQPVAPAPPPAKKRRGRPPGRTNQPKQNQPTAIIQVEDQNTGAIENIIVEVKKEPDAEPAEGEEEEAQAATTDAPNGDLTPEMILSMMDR


What was measured:
FLAG-CTCF(S224E)-6xHis = target: T1, FLAG-CTCF(S224E)-6xHis; test: EMSA; 0.5, 1 or 2 pmol protein; EMSA as in Sun et al., 2013; buffer, salt, pH and temperature not given in the material; settings: protein: recombinant; tags: N-terminal FLAG, C-terminal 6xHis; blunt
FLAG-CTCF(S224A)-6xHis = target: T2, FLAG-CTCF(S224A)-6xHis; test: as above; settings: protein: recombinant; tags: N-terminal FLAG, C-terminal 6xHis; blunt

| Binder | binding result (FLAG-CTCF(S224E)-6xHis) | binding result (FLAG-CTCF(S224A)-6xHis) |
| --- | --- | --- |
| RS14C (dsDNA) DNA 1: CTATGCATTAGGTTTGGGTGTTATACCCGTGTAGGCCAGCAGAGGGTGTCGGATCCCAAGGAAACCAAGTTACAGACGCC DNA 2: GGCGTCTGTAACTTGGTTTCCTTGGGATCCGACACCCTCTGCTGGCCTACACGGGTATAACACCCAAACCTAATGCATAG | binds | binds |
| RS14C mutant (dsDNA) DNA 1: CTATGCATTAGGTTTGGGTGTTATACCCGTGTAGGCTAGCACAGTGTGTCGGATCCCAAGGAAACCAAGTTACAGACGCC DNA 2: GGCGTCTGTAACTTGGTTTCCTTGGGATCCGACACACTGTGCTAGCCTACACGGGTATAACACCCAAACCTAATGCATAG | no binding | no binding |
